According to article PMC6681757, “Site-specific phosphorylation of myosin binding protein-C coordinates thin and thick filament activation in cardiac muscle” (Proceedings of the National Academy of Sciences of the …, 2019):

Biological target: T1, myosin S2Δ, the first 126 amino acids of myosin S2 (cardiac myosin)
T1 construct: cardiac myosin heavy chain, S2 domain, first 126 amino acids of S2
Assay: MST; C1mC2 species (or native full-length cMyBP-C) titrated against myosin S2Δ; normalized MST curves; conditions in SI Appendix
Settings: both partners purified

Kd: ~20 µM
B1: C1mC2-S288A monophosphorylated by PKA (C1mC2-S288A-1P) (domain or fragment)
chain: PIGLFLMRPQDGEVTVGGSIVFSARVAGASLLKPPVVKWFKGKWVDLSSKVGQHLQLHDSYDRASKVYLFELHITDAQATSAGGYRCEVSTKDKFDSCNFNLTVHEAIGSGDLDLRSAFRRTSLAGTGRRTADSHEDAGTLDFSSLLKKSSSFRRDSKLEAPAEEDVWEILRQAPPSEYERIAFQHGVTDLRGMLKRLKGMKHDEKKSTAFQKKLEPAYQVNKGHKIRLTVELADPDAEVKWLKNGQEIQMSGRYIFESIGAKRTLTISQCSLADDAAYQCVVGGEKCSTELFVKEP
modifications: one phosphate (monophosphorylated by PKA); the phosphorylated residue is not given
